Assay [1] deals with Full-length C24A β3 mutant with a carboxyl-terminal Myc epitope tag. The assay can be described thus: atomic force microscopy (AFM) imaging; Myc-tagged β3 (wild type or C24A) immunoisolated from tsA 201 detergent extract, diluted to ~40 pM, adsorbed to mica, imaged in air in tapping mode; molecular volumes of particles.
For assay [2], the target named is mEos2-labeled acid-sensing ion channel hASIC (UniProt P78348). The assay can be described thus: fluorescence photoactivated localization microscopy (FPALM) with pair correlation analysis; mEos2 fusions on the plasma membrane of fixed, transfected HEK293 cells; TIRF-PALM; 30 regions of 1 μm^2 on five cells; proteins per cluster.

Here are results for two substances from paper PMC4036194.

Chain of mEos2-labeled acid-sensing ion channel hASIC (from UniProt P78348 1-528) (natural protein) (P78348 whole entry): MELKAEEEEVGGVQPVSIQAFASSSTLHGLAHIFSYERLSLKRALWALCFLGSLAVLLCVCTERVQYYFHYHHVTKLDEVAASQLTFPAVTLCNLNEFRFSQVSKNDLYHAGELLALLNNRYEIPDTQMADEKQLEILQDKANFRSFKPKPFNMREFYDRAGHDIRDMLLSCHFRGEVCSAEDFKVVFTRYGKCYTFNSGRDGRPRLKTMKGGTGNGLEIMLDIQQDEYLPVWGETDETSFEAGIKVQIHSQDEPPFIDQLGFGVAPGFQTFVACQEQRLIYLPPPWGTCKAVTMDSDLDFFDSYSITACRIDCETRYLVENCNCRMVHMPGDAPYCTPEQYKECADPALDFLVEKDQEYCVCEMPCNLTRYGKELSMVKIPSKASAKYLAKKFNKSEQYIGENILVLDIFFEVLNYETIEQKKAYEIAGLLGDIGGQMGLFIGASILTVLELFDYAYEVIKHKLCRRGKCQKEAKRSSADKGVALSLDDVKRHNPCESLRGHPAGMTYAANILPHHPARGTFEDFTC

For “Full-length C24A β3 mutant with a carboxyl-terminal Myc epitope tag (natural protein)”, the stoichiometry N – broadly, a count of units in the complex or per binding partner – in assay [1] was 2. “mEos2-labeled acid-sensing ion channel hASIC (from UniProt P78348 1-528) (natural protein)” yielded a stoichiometry N in assay [2] of 3.
